The results in this text go back to US20250361322A1 (ICONIC THERAPEUTICS, published 2025).

Changes are numbered by the printed parent chain. Read-outs that look alike come from different tables or passages of the source.

Assay [1] addresses T1, cynomolgus monkey TF ECD-His6 (cynomolgus monkey (Macaca fascicularis)).
T1 construct: Expi293-derived; also called TF-His; cTF
T1 chain: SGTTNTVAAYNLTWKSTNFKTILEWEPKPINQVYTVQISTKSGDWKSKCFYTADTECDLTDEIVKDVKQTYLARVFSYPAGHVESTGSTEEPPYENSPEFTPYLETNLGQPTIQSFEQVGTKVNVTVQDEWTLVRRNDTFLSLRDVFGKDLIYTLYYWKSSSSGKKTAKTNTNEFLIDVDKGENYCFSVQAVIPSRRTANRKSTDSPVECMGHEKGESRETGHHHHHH
The experiment in a line: BLI (ForteBio Octet). In general terms: BLI is a label-free optical method that tracks binding on a fibre tip over time.

The target in assay [2] is T2, human TF ECD-His6 (human, UniProt P13726 33-251).
T2 construct: Expi293-derived; Biacore used TF-His; also called TF-His; hTF
The experiment in a line: BLI (ForteBio Octet).

In assay [3] the target is T3, Relipidated TF (UniProt P13726 33-295, limits assumed). Nature of the assay: cell-based or functional assay.
Assay [4] concerns the target T4, human Tissue Factor on human TF-positive cells (human, UniProt P13726 33-295).
T4 construct: also called hTF; CD142
The experiment in a line: competition flow cytometry on MDA-MB-231 cells: antibody titration first, then 20 nM FVII-Fc-Alexa488 as the blocked ligand. In general terms: In flow cytometry, cells or beads pass a laser one at a time.

Assay [5] concerns the target T3, Relipidated TF. Nature of the assay: cell-based or functional assay. The source holds these as a separate data set.
The target in assay [6] is T1, cynomolgus monkey TF ECD-His6. The experiment in a line: SPR (Biacore), TF-His over coupled antibody. (In general: Surface plasmon resonance follows binding to a sensor surface in real time, without labels.)
Assay [7] deals with T2, human TF ECD-His6. Nature of the assay: SPR (Biacore), TF-His over coupled antibody.
The target of assay [8] is T5, rTF (rat TF) construct on HEK293 cells (rat, UniProt P42533 29-252).
T5 construct: not shown: transmembrane/cytoplasmic anchor of the cell-surface construct
Nature of the assay: live cell staining, HEK293 cells.

The target of assay [9] is T4, human Tissue Factor on human …. Nature of the assay: flow cytometry, antibody titration on A431 cells (human TF), 4-parameter fit of MFI.
The target is the same in assay [10]. Nature of the assay: competition flow cytometry on MDA-MB-231 cells: unlabeled antibody titration first, then 20 nM 39A-Alexa488 as the competitor.
Assay [11] deals with T6, full-length mouse TF with a C-terminal FLAG tag on Flp-In-CHO cells (mouse, UniProt P20352 29-294).
T6 construct: also called CHO-mTF; mouse TF-positive CHO cells
Nature of the assay: flow cytometry, antibody titration on CHO cells expressing mouse TF.

Assay [12] deals with T6, full-length mouse TF with a C-terminal …. The experiment in a line: flow cytometry on CHO cells expressing mouse TF, MFI at 250 nM antibody.
For assay [13], the target named is T4, human Tissue Factor on human …. Nature of the assay: flow cytometry, antibody titration on HCT-116 cells (endogenous human TF), 4-parameter fit of MFI.
Assay [14] has as its target T7, mouse TF ECD-His6 (mouse, UniProt P20352 29-251).
T7 construct: Expi293-derived; also called TF-His; mTF
The experiment in a line: BLI (ForteBio Octet).

Assay [15] concerns the target T6, full-length mouse TF with a C-terminal …. Nature of the assay: flow cytometry, antibody titration on CHO cells expressing mouse TF, 4-parameter fit of MFI.
Protocol: (§1) After 2 washes, dead cells were labeled with TO-PRO-3 Iodide (ThermoFisher Scientific) and samples were analyzed on a CytoFLEX flow cytometer (Beckman Coulter, Brea, CA, USA) or Novocyte flow cytometer (ACEA Biosciences, San Diego, CA, USA). The median fluorescence intensities (MFIs) at each dilution were plotted and cell EC₅₀'s were derived using a 4-parameter binding model in Prism (GraphPad, La Jolla, CA, USA).
For assay [16] the target is unchanged. The experiment in a line: flow cytometry on CHO cells expressing mouse TF, MFI at 250 nM antibody. The source holds these as a separate data set.
Protocol: as §1
Assay [17] has the same target. The experiment in a line: flow cytometry, antibody titration on CHO cells expressing mouse TF, 4-parameter fit of MFI. The source holds these as a separate data set.
Protocol: as §1
The target of assay [18] is T4, human Tissue Factor on human …. The experiment in a line: flow cytometry, antibody titration on HCT-116 cells (endogenous human TF), 4-parameter fit of MFI. The source holds these as a separate data set.
Protocol: as §1

T5 sequence (P42533 29-252 limits assumed): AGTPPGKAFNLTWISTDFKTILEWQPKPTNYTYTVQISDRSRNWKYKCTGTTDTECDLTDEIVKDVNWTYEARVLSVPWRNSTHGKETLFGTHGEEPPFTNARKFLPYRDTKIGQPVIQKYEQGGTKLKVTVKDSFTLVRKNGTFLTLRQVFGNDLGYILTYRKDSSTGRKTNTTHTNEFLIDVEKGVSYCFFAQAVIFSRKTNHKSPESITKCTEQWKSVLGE

B1: 1F (antibody, human IgG1, V domains shown)
VH: EVQLLESGGGLVQPGGSLRLSCAASGFTFSDYAMGWVRQAPGKGLEWVSTISGSGGLTYYADSVKGRFTISRDNSKNTLYLQMNSLRAEDTAVYYCAKAPYGYYMDVWGKGTTVTVSS
VL: not shown
notes: Human IgG1; also called antibody designated 1F
In assay [1], B1 gave a Kd of 1.43 nM. In assay [2], this molecule showed a Kd of 1.28 nM. Moreover, in [3], the “% ETP at 10 nM Ab (TGA with 10 min antibody pre-incubation)” value turned out to be 31%, the “% Peak IIa at 10 nM Ab (TGA with 10 min antibody pre-incubation)” value is 10%, the “% Peak IIa at 50 nM Ab (TGA with 10 min antibody pre-incubation)” value turned out to be 7% and the “% Peak IIa at 100 nM Ab (TGA with 10 min antibody pre-incubation)” value came to 7%. In assay [3], the “ETP at 10 nM Ab (TGA with 10 min antibody pre-incubation)” value amounted to 540 nM·min, the “Lag Time at 10 nM Ab (TGA with 10 min antibody pre-incubation)” value came out at 18.8 min, the “Lag Time at 50 nM Ab (TGA with 10 min antibody pre-incubation)” value amounted to 27.6 min and the “Lag Time at 100 nM Ab (TGA with 10 min antibody pre-incubation)” value is 30.3 min. Moreover, in assay [3], the “Peak IIa at 10 nM Ab (TGA with 10 min antibody pre-incubation)” value was 27 nM, the “Peak IIa at 50 nM Ab (TGA with 10 min antibody pre-incubation)” value is 20 nM, the “Peak IIa at 100 nM Ab (TGA with 10 min antibody pre-incubation)” value turned out to be 17 nM and the “ttPeak at 10 nM Ab (TGA with 10 min antibody pre-incubation)” value was determined as 28.6 min. In [3], the “ttPeak at 50 nM Ab (TGA with 10 min antibody pre-incubation)” value amounted to 38.9 min and the “ttPeak at 100 nM Ab (TGA with 10 min antibody pre-incubation)” value stood at 42 min. Further, the “IC50 (read off the curve)” value in assay [4] is roughly 1 nM. Besides, in [5], the “% ETP at 10 nM Ab (TGA without antibody pre-incubation)” value amounted to 58%, the “% Peak IIa at 10 nM Ab (TGA without antibody pre-incubation)” value was 21%, the “% Peak IIa at 50 nM Ab (TGA without antibody pre-incubation)” value amounted to 8% and the “% Peak IIa at 100 nM Ab (TGA without antibody pre-incubation)” value was 7%. Also, in assay [5], the “ETP at 10 nM Ab (TGA without antibody pre-incubation)” value was found to be 1400 nM·min, the “Lag Time at 10 nM Ab (TGA without antibody pre-incubation)” value was determined as 12.1 min, the “Lag Time at 50 nM Ab (TGA without antibody pre-incubation)” value was found to be 27.2 min and the “Lag Time at 100 nM Ab (TGA without antibody pre-incubation)” value is 25.9 min. In addition, in assay [5], the “Peak IIa at 10 nM Ab (TGA without antibody pre-incubation)” value came out at 83 nM, the “Peak IIa at 50 nM Ab (TGA without antibody pre-incubation)” value stood at 32 nM, the “Peak IIa at 100 nM Ab (TGA without antibody pre-incubation)” value came to 29 nM and the “ttPeak at 10 nM Ab (TGA without antibody pre-incubation)” value worked out at 19.8 min. For the same molecule, in assay [5], the “ttPeak at 50 nM Ab (TGA without antibody pre-incubation)” value is 36.8 min and the “ttPeak at 100 nM Ab (TGA without antibody pre-incubation)” value turned out to be 37.9 min. Moreover, the Kd in assay [6] is 0.26 nM. This molecule displayed a Kd in [7] of 0.31 nM. Further, in assay [8], the binding result was “no binding”. In assay [9], this molecule yielded an EC50 of 0.49 nM. In addition, in assay [10], the IC50 stood at 0.65 nM. The binding result in [11] is reported as “no binding (tested: 250 nM)”. Moreover, the “MFI at 250 nM” value in assay [12] turned out to be 4200. Further, the EC50 in assay [13] came out at 0.05 nM.

B2: 25A5 (antibody, human IgG1, V domains shown)
VH: QVQLVQSGAEVKKPGASVKVSCKASGYTFDVYGISWVRQAPGQGLEWMGWIAPYSGNTNYAQKLQGRVTMTTDTSTSTAYMELRSLRSDDTAVYYCARDAGTYSPFGYGMDVWGQGTTVTVSS
VL: DIQMTQSPSTLSASVGDRVTITCRASESISNWLAWYQQKPGKAPKLLIYKAYSLEYGVPSRFSGSGSGTEFTLTISSLQPDDFATYYCQQFQKLPPFTFGGGTKVEIK
notes: Human IgG1; also called antibody designated 25A5
Regarding B2, the dissociation constant (Kd) in assay [2] was determined as 0.64 nM; in assay [14] it was 188 nM; in assay [6], 0.04 nM; in [7], 0.08 nM. Further, the results for the EC50 in [15] and in assay [13] were 11 nM and 0.088 nM, respectively. Besides, the “MFI at 250 nM” value in [12] worked out at 8e+06.

B3: 25G (antibody, human IgG1, V domains shown)
VH: B2 VH with D30R, V31S, I51V, S55N, F106Y
VL: B2 VL with E27Q, N31S, Y52S, Y56S, K93S
notes: Human IgG1; also called antibody designated 25G
On to B3, for which the Kd in assay [1] was determined as 17.5 nM; in assay [2], 21.9 nM; in [14], 114 nM; in assay [6], 18 nM; in [7] it was 23 nM. In addition, the EC50 came out at 3.9 nM in [15] and 0.134 nM in [13]. Further, in assay [12], the “MFI at 250 nM” value came out at 1.6e+07.

B4: 43B1 (antibody, human IgG1, V domains shown)
VH: QVQLQESGPGLVKPSQTLSLTCTVSGGSISSGQYWSWIRQHPGKGLEWIGEIYYSGSTRYNPSLKSRVTISVDTSKNQFSLKLSSVTAADTAVYYCARDAPYYYGGGYYYYMDVWGKGTTVTVSS
VL: EIVLTQSPGTLSLSPGERATLSCRASESVDSSYLAWYQQKPGQAPRLLIYGASTRQTGIPDRFSGSGSGTDFTLTISRLEPEDFAVYYCQQAGVVPYTFGGGTKVEIK
notes: Human IgG1; also called antibody designated 43B1
In turn, B4 displayed a Kd in [14] of 72.1 nM. The “MFI at 250 nM” value in assay [16] amounted to 5.3e+06. The same molecule registered an EC50 in assay [17] of 255 nM.

B5: 43D (antibody, human IgG1, V domains shown)
VH: QVQLQQWGAGLLKPSETLSLTCAVYGGSLSGYYWSWIRQPPGKGLEWIGEIGASGSTRYNPSLKSRVTISVDTSKNQFSLKLSSVTAADTAVYYCARDTPYYYEGGYYYYMDVWGKGTTVTVSS
VL: B4 VL with E27Q, D30S, T54S, Q56A, A92V
notes: Human IgG1; also called antibody designated 43D
On to B5, for which the EC50 in assay [18] worked out at 0.147 nM; in assay [17] it was 2.9 nM. Further, the Kd in [1] was determined as 4.12 nM; in assay [2], 3.84 nM; in [14] it was 281 nM; in [6], 5.66 nM; in [7], 2.09 nM. Further, the “MFI at 250 nM” value in assay [16] worked out at 1.3e+07.

B6: 43B7 (antibody, human IgG1, V domains shown)
VH: B4 VH
VL: B4 VL with S53D, T54S, Q56A, A92D
notes: Human IgG1; also called antibody designated 43B7
B6: in assay [18], it took 0.255 nM to reach a half-maximal effect (EC50). The Kd worked out at 0.94 nM in assay [1]; 0.86 nM in assay [2]; 360 nM in [14]; 0.24 nM in assay [6]; 0.14 nM in [7]. In addition, the “MFI at 250 nM” value in assay [16] was 800000.

As a reminder, the Kd is the concentration at which binding is half-saturated. The EC50 is the concentration at which the effect is half-maximal. For orientation: IC50 means the midpoint of a concentration-inhibition curve.
